The results in this text go back to the DeepSol protein solubility set.

The nature of this series: soluble on expression in E. coli; label from the status in PepcDB or PDB records.
Consider “MSEADQALVGPKADEPSPPAEEKDEGGGKEAAADAAPGPSASFRLMVTRREPAVKLQYAVSGLEPLSWSEDHRVSVSTARSVAVLELICDVHNPGQDLVIHRTSVPAPLNSCLLKVGSKTEVAECKEKFASSKDPTISQTFMLDRMFNPEGKALPPMRGFKYTSWSPMGCDANGRCLLAALTMDNRLTVQVNLNRLQWVQLVDLTEIYGDRLYETSYRLSKNEAPEGNLGDFAEFQRRHSMQTPVRMEWSSICTTQQVKHNNECRDVSS”, for which the “soluble on expression in E. coli” value was “not soluble”.
The entry for “MSEAESVVIKGGNKDKILPLEAEEKKPIKEEKNKAVILSNWIIKYAPIVYFHPDEKCFPITVEEFLECTDVMNEKNEKFCDGKEILSGSFKDALGNQKFYLKITDTSVREGNLNSAKCYVYVRKRNKGRYLDLQYFFFYGYNGPTINIHLNKNKKNYSTSNIGENYGNWEHVTVVIDSTDGSILGAIFDQHGKSCFYDIDQLEYEKGHIVVYSALSSHASYPSAGKSVTEYDSQELGVPPVSVGIVKFELHDATDKGRRWDTSLVCQLVSYNITGTEVEEPKWMAFNGRWGKPYDLTDKDISILYQISRLPAGGKVVDSLLWRFIPYSKKNINQANGIKSKDDFNIIILEHHHHHH” is “not soluble”; for “MSEAKDNGSRDEVLVPHKNCRKNTTVPGKKGEEKSLAPVFAEKLISPSRRGAKLKDRESHQENEDRNSELDQDEEDKESFCRGFPMSGCELETSCCVCHSTALGERFC” it is “soluble”; for “MSEDRSSNGHKSWLDKITQAFAHEPRNRQELLELLRDAHDNKLLDSEALSIVEGAIQVADLQVRDIMVPRSQMMSIRSTQTPKEFLPAIIEAAHSRYPVVGESLDDVMGVLLAKDLLPLILHNDERPFDIKELLRPATFVPESKRLNVLLREFRANRNHMAIVIDEYGGVAGLVTIEDVLEQIVGDIEDEHDVEEDSYIKPLPSGDFIVKALTPVDAFNDFFGSEFSDEEFDTVGGLVMSAFGHLPKRNEVVELGEFRFRVLNADSRRVHLLRLSPLQN” it is “soluble”.
The result for “MSEGWNIAILGATGAVGEALLETLAERQFPVGEIYALARHESAGEHLRFGGKSVIVQDAADFDWTQAQLAFFVAGAEASAAWIDDATNAGCLVIDSSGLFALEPDVPLVVPEVNPYVLADYRNRNVIAVADSLTSQLLAALKPLIDQGGLSRIAVTSMLSASAQGKKAVDALAGQSAKLLNGIPIDEDDFFGRQLAFNMLPLLPDREGSVRQERRIVDEVRKILQDDGVMISASVVQSPVFYGHAQMVSFEALRPLAAEEAREAFSRGEDIVLSEETDYPTQVGDASGNPQLSIGCVHNDYGMPEQIQFWSVADNVRFGGALMAVKIAEKLVQEYLY” reads “not soluble”.
For the sequence “MSEIGTGFPFDPHYVEVLGERMHYVDVGPRDGTPVLFLHGNPTSSYLWRNIIPHVAPSHRCIAPDLIGMGKSDKPDLDYFFDDHVRYLDAFIEALGLEEVVLVIHDWGSALGFHWAKRNPERVKGIACMEFIRPIPTWDEFHHTEVAEEQDHAEAARETFQAFRTADVGRELIIDQNAFIERVLPGGVVRPLTEVEMDHYREPFLKPVDREPLWRFPNELPIAGEPANIVALVEAYMNWLHQSPVPKLLFWGTPGALIPPAEAARLAESLPNCKTVDIGPGLHYLQEDNPDLIGSEIARWLPAL”, the “soluble on expression in E. coli” value is “soluble”.
The result for “MSENSIRLTQYSHGAGCGCKISPKVLETILHSEQAKFVDPNLLVGNETRDDAAVYDLGNGTSVISTTDFFMPIVDNPFDFGRIAATNAISDIFAMGGKPIMAIAILGWPINKLSPEIAREVTEGGRYACRQAGIALAGGHSIDAPEPIFGLAVTGIVPTERVKKNSTAQAGCKLFLTKPLGIGVLTTAEKKSLLKPEHQGLATEVMCRMNIAGASFANIEGVKAMTDVTGFGLLGHLSEMCQGAGVQARVDYEAIPKLPGVEEYIKLGAVPGGTERNFASYGHLMGEMPREVRDLLCDPQTSGGLLLAVMPEAENEVKATAAEFGIELTAIGELVPARGGRAMVEIR” reads “soluble”; that for “MSEPAVVSILDTDLYKLTMLQAVLEHYPDAQVSYKYTNRSPKMALNQEAYNWLREQIRGLRNLHLLPEEEQWLRKNCPYLKESFYEFMHEFEFDPENSISLNYDSETKDLSIFIHGLWKNTIFYEIPLLALVSESYFKFVDKDWSPEGQFEKAYEKGKRLIRAGCAFTDFGTRRRRDPHTQEIVLQGLMKAQEDFKGPGSFLGTSNVYFAAKYNLNVSGTVAHEWYMGIAAITQNYKQANRIASLKWVQTFGTSLLIALTDTFSTDVFLKSFTANSADDLANVFHGVRQDSGCAEEYIEKVVKHYKSIGVDPSTKVIVHSDALNVDRCIELYKYCEKCGIKSAFGIGTNLTSDFQKVSNPSEVSKPMNIVIKLFSAEGTKAVKISDDIMKNTGDRDAVIQAKHQLCLPIA”, “soluble”.
